Measurements published in patent EP4631974A1 (Nanjing Vazyme Biotech Co., Ltd., dated 2025).

B1: F6-210 (antibody, V domains shown)
VH: QERLAQSGTEVKKPGASVKVSCRALGYTFSDYSIHWVRQAPRQGLEWMGKINTSGGTTTYAQKFQARVTLTSDTSTSTASMELSSLKIEDTAVYYCVAYERATTLAGAGASDIWGQGTLVTVSS
VL: DIVMTQSPLSLPVTPGEPASISCRSSQSLLHSDGYNYLDWYLQKPGQSPHLLIYLGSNRASGVPDRFSGSGSGTDFTLKITRVEPEDVGVYYCMQSLQTPFTFGPGTKVDVKR
notes: Human IgG1 expressed in CHO cells; heavy = VH + IgG1 constant region, light = VL + CL
B2: F6-63 (antibody, V domains shown)
VH: QVQVVESGGGVVEPGGSLSLSCAASGFSFKMHAMHWVRQAPGKGLEWVAFIPYDGSSQYYADSVKGRFTIYRDNFKNTLYLQMNSLRVEDTSLYYCARGGEEGAWSWIGYNSYMDVWGRGTAVTVSS
VL: QSALTQPASVSGSPGQSITISCSGTSSDVGGYDYVCWYQKHPGESPRLIIYDVSRRPSGVSNRFSGSKSGNTASLTISGLQAEDEADYSCSSYTSSNTLIFGGGTKLTVLG
notes: as for B1

Key:
RSV A2 pre-F protein [1] = biological target: T1, RSV A2 pre-F protein (respiratory syncytial virus (RSV) A2, UniProt P03420 26-513); test: ELISA, plate-coated RSV A2 pre-F, anti-human IgG Fc-HRP detection
T1 construct: House-made by Vazyme; also called RSV 2A pre-F protein

RSV A2 pre-F protein [2] = biological target: T1, RSV A2 pre-F protein; test: ELISA, plate-coated RSV A2 pre-F, anti-human IgG Fc-HRP detection (2-fold dilutions from 1 ug/mL)

Binder	EC50 (RSV A2 pre-F protein [1])	EC50 (RSV A2 pre-F protein [2])
B1	0.028 µg/mL	–
B2	–	0.016 µg/mL
